These results are taken from US20250009808A1.

This assay deals with rat RT1A class I histocompatibility antigen (rat (Rattus norvegicus)) (UniProt P16391). The experiment in a line: heterogeneous rat liver cells incubated with antibody; cell count of retained versus flow-through fractions.
UniProt P16391, sequence (P16391 25-371 limits assumed): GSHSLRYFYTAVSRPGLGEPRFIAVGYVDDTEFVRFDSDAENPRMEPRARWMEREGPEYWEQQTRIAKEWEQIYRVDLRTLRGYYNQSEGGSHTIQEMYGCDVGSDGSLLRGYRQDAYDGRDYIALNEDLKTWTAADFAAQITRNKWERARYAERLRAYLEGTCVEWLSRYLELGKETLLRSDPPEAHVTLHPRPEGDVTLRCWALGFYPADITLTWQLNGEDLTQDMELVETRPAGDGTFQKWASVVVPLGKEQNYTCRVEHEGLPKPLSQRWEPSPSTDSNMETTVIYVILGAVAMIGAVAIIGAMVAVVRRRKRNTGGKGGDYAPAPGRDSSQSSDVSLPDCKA
For the substance “anti-RT1A monoclonal antibody IgG2a MRC clone OX-27”, the percent of total cells in the population bound is under 10%.

For the substance “anti-RT1A monoclonal antibody IgG1 clone F16-4-4”, the percent of total cells in the population bound is over 60%.

Substance “anti-RT1A monoclonal antibody IgG1 MRC clone OX-18” gave a percent of total cells in the population bound of 60%.
